The record followed here is patent US20110311556A1 (LFB BIOTECHNOLOGIES, published 2011).

One test deals with CD16 (FcγRIII receptor) (UniProt P08637 17-254, limits assumed). Put plainly: cell-based or functional assay.
Test [1] concerns the target T1, Rhesus D antigen (RhD) on Rhesus D positive red blood cells group O R1R1 (human, UniProt Q02161 2-417).
T1 construct: whole, on cells
T1 sequence (looked up): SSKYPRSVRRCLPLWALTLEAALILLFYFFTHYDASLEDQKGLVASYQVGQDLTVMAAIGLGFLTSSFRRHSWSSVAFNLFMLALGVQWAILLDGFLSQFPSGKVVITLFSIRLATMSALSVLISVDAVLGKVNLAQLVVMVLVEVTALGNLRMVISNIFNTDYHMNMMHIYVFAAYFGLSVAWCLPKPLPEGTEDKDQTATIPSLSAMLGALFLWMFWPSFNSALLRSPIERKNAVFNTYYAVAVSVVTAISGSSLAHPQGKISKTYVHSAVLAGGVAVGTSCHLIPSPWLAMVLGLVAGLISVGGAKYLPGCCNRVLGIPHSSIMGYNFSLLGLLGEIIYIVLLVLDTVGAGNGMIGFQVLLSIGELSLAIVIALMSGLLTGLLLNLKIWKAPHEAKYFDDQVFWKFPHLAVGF
Put plainly: cytometric determination of anti-D specific activity on red blood cells.

CD16 (FcγRIII receptor), sequence (P08637 17-254 limits assumed): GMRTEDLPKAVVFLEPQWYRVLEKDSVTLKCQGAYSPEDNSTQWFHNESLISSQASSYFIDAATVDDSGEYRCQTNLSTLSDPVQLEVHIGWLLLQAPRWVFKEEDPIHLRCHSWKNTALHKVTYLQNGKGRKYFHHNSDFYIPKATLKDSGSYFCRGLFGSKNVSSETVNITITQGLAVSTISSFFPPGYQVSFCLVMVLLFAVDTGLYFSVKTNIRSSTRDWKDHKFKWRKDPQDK

B1: non-mutant (C68) anti-D antibody (sequence of the R297 antibody of clone T125 A2) (antibody, human IgG1, kappa)
heavy: not shown
light: AIRMTQSPSSFSASTGDRVTITCRASQDIRNYVAWYQQKSGKAPKFLIYAASTLQSGVPSRFSGSGSGTDFTLTINSLQSEDFATYYCQQYYNSPPTFGQGTRVEITRTVAAPSVFIFPPSDEQLKSGTASVVCLLNNFYPREAKVQWKVDNALQSGNSQESVTEQDSKDSTYSLSSTLTLSKADYEKHKVYACEVTHQGLSSPVTKSFNRGEC
notes: IgG1 tetramer; also called non-mutant (C68) antibody; T125 anti-D antibody
Regarding B1, the “ADCC activity: EC50 (antibody concentration producing 50% of maximum activity)” value with CD16 (FcγRIII receptor) worked out at 0.02 µg/mL. The binding result in test [1] is listed as “binds”.

B2: R593 antibody (mutant (F68) anti-D antibody) (antibody, human IgG1, kappa)
heavy: not shown
light: AIRMTQSPSSFSASTGDRVTITCRASQDIRNYVAWYQQKSGKAPKFLIYAASTLQSGVPSRFSGSGSGTDFTLTINSLQSEDFATYYCQQYYNSPPTFGQGTRVEITRTVAAPSVFIFPPSDEQLKSGTASVVCLLNNFYPREAKVQWKVDNALQSGNSQESVTEQDSKDSTYSLSSTLTLSKADYEKHKVYACEVTHQGLSSPVTKSFNRGEC
notes: Tetrameric IgG1 with kappa light chain, two heavy and two light chains; Phenylalanine at heavy chain position 68 (67 by Kabat); Produced in the YB2/0 line; also called mutant (F68) antibody; mutant F68 antibody
Turning to B2, the “ADCC activity: EC50 (antibody concentration producing 50% of maximum activity)” value with CD16 (FcγRIII receptor) came to 0.021 µg/mL. For the same molecule, the binding result in test [1] is “binds”.
